The values below come from patent US20070022497A1, “Trans-2-enoyl-coa reductase gene of euglena gracilis” (BASF Plant Science GmbH, priority 2004, published 2007).

Data set [1] concerns Arabidopsis thaliana. Description: Total seed lipid content of transgenic Arabidopsis plants over-expressing the TER gene (gas chromatography of fatty acids). The class given is in vivo. Conditions: for Total seed lipids, % fatty acids: mean of two extractions, empty vector controls 28.3 ± 0.4. The protocol:
Using floral dip essentially as described by Clough and Bent, 1998, plants are transformed with Agrobacterium tumefaciens C58C1 harboring the plasmid pSUN300-USP-TER-OCS respectively. Entire plants (inflorescence and rosette) are submerged for 20-30 sec in the infiltration media consisting of 5% sucrose, 0.02% Silwet L-77 (Osi Specialties, Danbury, Conn.) and re-suspended transformed A. tumefasciens cells. Plants are then transferred to a growth chamber with a photoperiod of 16 h of light at 21° C. and 8 h of dark at 18° C. (70% humidity) or a similarly air-conditioned greenhouse. The T1 seeds are collected from mature plants. Subsequently transformed plants were identified on selection media by growing T1 seeds on MS-agar plates supplemented with kanamycin (50 μg/ml).
Plant lipids were extracted from plant material as described by Cahoon et al. (1999, Proc. Natl. Acad. Sci. USA 96, 22:12935-12940) and Browse et al. (1986, Anal, Bio-chemistry 442:141-145). Qualitative and quantitative lipid or fatty acid analysis is described in Christie, William W., Advances in Lipid Methodology. Ayr/Scotland :Oily Press.—(Oily Press Lipid Library; Christie, William W., Gas Chromatography and Lipids. A Practical Guide—Ayr, Scotland :Oily Press, 1989 Repr. 1992.—IX,307).
The total lipid content of dry T2 generation seeds from Arabidopsis thaliana plants over-expressing SEQ ID NO: 1, SEQ ID NO: 4 or SEQ ID NO: 6 will be increased compared to the empty vector Arabidopsis thaliana control plants not expressing SEQ ID NO: 1, SEQ ID NO: 4 or SEQ ID NO: 6. As an example the T2 seed lipid content determined by conventional gas chromatography as mg fatty acids per mg dry seeds of the plants overexpressing SEQ ID NO: 4 is given in table 4. Each value is the mean of two separate extractions of the seed of the given line. The control value is the mean of the seeds of 4 empty vector control plants grown simultaneously, each extracted and measured also in duplicate.

For data set [2], the target named is T1, trans-2-enoyl-CoA reductase (TER) (Euglena gracilis, UniProt Q5EU90).
T1 construct: One kilogram of Euglena gracilis strain Z cells grown under aerobic conditions for one week was used as starting material; endogenous in cells; host or cells: Euglena gracilis strain Z, aerobically grown; enzyme purified by chromatography (crude extract to Superdex 200)
T1 sequence (Q5EU90 137-539 limits assumed): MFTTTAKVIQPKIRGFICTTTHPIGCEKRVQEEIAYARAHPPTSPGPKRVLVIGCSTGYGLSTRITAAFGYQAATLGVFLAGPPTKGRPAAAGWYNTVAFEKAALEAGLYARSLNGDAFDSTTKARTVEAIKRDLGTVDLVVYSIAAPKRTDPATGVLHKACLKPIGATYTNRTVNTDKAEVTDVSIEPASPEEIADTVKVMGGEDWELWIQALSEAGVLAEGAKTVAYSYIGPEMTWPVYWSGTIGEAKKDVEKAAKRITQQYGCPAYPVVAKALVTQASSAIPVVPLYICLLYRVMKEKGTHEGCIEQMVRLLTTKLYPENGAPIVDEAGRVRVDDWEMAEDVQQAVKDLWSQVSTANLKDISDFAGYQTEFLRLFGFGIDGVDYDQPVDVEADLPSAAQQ
Description: trans-2-enoyl-CoA reductase enzyme activity assay (decrease of absorbance at 340 nm with Crotonyl-CoA and NADH). The class given is biochemical. To be noted: His-Tag protein from ter2-pET28 in E. coli BL21 (DE3), purified via Ni-NTA agarose. The procedure: Enzyme activity was measured as described by Inui, H. et al. (1984) Eur. J. Biochem. 142: 121-126 with the following modifications. The assay mixture contained 100 mM potassiumphosphate buffer pH 6,2; 0,75 mM Crotonyl-CoA (Sigma); 0,4 mM NADH and 2 μM FAD and enzyme. The assay mixture without substrate was preincubated for 10 min at 30° C. The reaction was also performed at 30° C. and started with the addition of substrate. The activity was determined by the decrease of absorbance at 340 nm. The final assay volume was 1 ml (Ultrospec 2000 Spectrophotometer, Amersham Biosciences) or 200 μl (GENios microplate reader, Tecan Instruments, Maennedorf, Switzerland).

B1: SEQ ID NO: 4: shortened Ter gene ORF; protein SEQ ID NO: 5 with 28 amino acid N-terminal stretch predicted to give mitochondrial targeting (nucleic acid, listed as Euglena gracilis)
DNA: ATGGGCCGCCGCGGGGCCGCAGTGGGCGGCGCCGCTCGTGGCCGCGGCCTCCTCCGCACTGGCGCTGTGGTGGTGAACATCGCCACCGCGGTCACCCACCTGGCCCCCCCGATGGCGATGTTCACCACCACAGCGAAGGTCATCCAGCCCAAGATTCGTGGCTTCATCTGCACGACCACCCACCCGATCGGCTGTGAGAAGCGGGTCCAGGAGGAGATCGCGTACGCCCGTGCCCACCCGCCCACCAGCCCTGGCCCGAAGAGGGTGCTGGTCATCGGCTGCAGTACCGGCTACGGGCTCTCCACCCGCATCACCGCTGCCTTCGGCTACCAGGCCGCCACGCTGGGCGTGTTCCTGGCGGGCCCCCCGACGAAGGGCCGCCCCGCCGCGGCGGGCTGGTACAACACCGTGGCGTTCGAGAAGGCCGCCCTGGAGGCCGGGCTGTACGCCCGGAGCCTTAATGGCGACGCCTTCGACTCCACAACGAAGGCGCGGACGGTCGAGGCGATCAAGCGGGACCTCGGCACGGTGGACCTCGTGGTGTACAGCATCGCCGCCCCGAAGCGGACGGACCCTGCCACCGGCGTCCTCCACAAGGCCTGCCTGAAGCCCATCGGCGCCACGTACACCAACCGCACTGTGAACACCGACAAGGCGGAGGTGACCGACGTCAGCATTGAGCCGGCCTCCCCCGAAGAGATCGCGGACACGGTGAAGGTGATGGGCGGGGAGGACTGGGAGCTCTGGATCCAGGCGCTGTCGGAGGCCGGCGTGCTGGCGGAGGGGGCCAAGACGGTGGCGTACTCCTACATCGGCCCCGAGATGACGTGGCCTGTCTACTGGTCCGGCACCATCGGGGAGGCCAAGAAGGACGTGGAGAAGGCTGCCAAGCGCATCACGCAGCAGTACGGCTGCCCGGCGTACCCGGTGGTGGCCAAGGCCTTGGTCACCCAGGCCAGCTCCGCCATCCCGGTGGTGCCGCTCTACATCTGCCTGCTGTACCGCGTTATGAAGGAGAAGGGCACCCACGAGGGCTGCATCGAGCAGATGGTGCGGCTGCTCACCACGAAGCTGTACCCCGAGAACGGGGCCCCCATCGTCGATGAGGCCGGACGTGTGCGGGTGGATGACTGGGAGATGGCGGAGGATGTGCAGCAGGCTGTTAAGGACCTCTGGAGCCAGGTGAGCACTGCCAACCTCAAGGACATCTCCGACTTCGCTGGGTATCAAACTGAGTTCCTGCGGCTGTTCGGGTTCGGCATTGACGGCGTGGACTACGACCAGCCCGTGGACGTGGAGGCGGACCTCCCCAGTGCTGCCCAGCAGTAG
modifications: CDS (1)..(1329)
For the molecule B1, the “increase in seed storage lipids compared to the controls” value in data set [1] (independent T2 lines, seed specific promoter, relative to empty pSun300-USP vector controls (FIG. 9)) is listed as “at least 10%”. In addition, the “Total seed lipids, % fatty acids” value in data set [1] (transgenic line 7, dry T2 seeds) is 35.5 ± 3.2%; in data set [1] (transgenic line 10, dry T2 seeds), 32.4 ± 1.1%; in data set [1] (transgenic line 22, dry T2 seeds), 31.4 ± 0.9%.

B2: ter2-protein: His-tagged truncated TER protein (from aa 136, 45 kDa) expressed in E. coli (protein, listed as Euglena gracilis)
chain: T1 sequence (Q5EU90 137-539 limits assumed)
modifications: His tag
notes: His-tagged truncated TER protein (from aa 136, 45 kDa) expressed in E. coli
Consider B2, for which the “Specific activity of purified ter2-protein” value in data set [2] amounted to 1510 nmol/mg/min.
